Experimental data from paper PMC10652518, “Enzyme kinetics of deoxyuridine triphosphatase from Western corn rootworm” (BMC Research Notes, 2023).

Legend:
[1] = test system: T1, O=c1ccn([C@H]2C[C@H](O)[C@@H](COP(=O)(O)OP(=O)(O)OP(=O)(O)O)O2)c(=O)[nH]1; test: cresol red proton-release assay, stopped-flow spectrophotometer, integrated Michaelis-Menten fit; format: biochemical, Diabrotica virgifera; conditions: 50 nM enzyme, 1 mM dUTP; activity prevented by EDTA
T1 construct: starts at residue 25; R89K to prevent secondary thrombin cleavage; N-terminal 6-His tag cut by thrombin; codon-optimized synthetic gene in pET-15, E. coli; trimer (48 kDa by SEC)
Description: cresol red proton-release assay, stopped-flow spectrophotometer, integrated Michaelis-Menten fit on WCR dUTPase

[2] = molecular target: the molecule itself; test: SEC; Superdex matrix, molecular weight calibrated with the BioRad SEC standard; tag-free dUTPase, estimated 48 kDa against 15.6 kDa on SDS-PAGE

## WCR dUTPase (Diabrotica virgifera virgifera; R89K)
[1]
  Km: 0.7 ± 0.1 µM
  kcat: 30 ± 0.5 s⁻¹
  kcat/Km: 4e+07 M⁻¹ s⁻¹

B1: Western corn rootworm (Diabrotica virgifera virgifera) deoxyuridine 5'-triphosphate nucleotidohydrolase (dUTPase), construct from residue 25 with Arg89Lys, … (enzyme, UniProt A0A6P7FUX9 25-168, looked up)
chain: GANILLKYTKVIEEAYPPTKGSVKAAGYDLKSAHDVVVPARGKALVDTGLKIELPEGCYGRIAPKSGLAVKNFIDVGAGVVDEDYRGLLKVVLFNHSDNDFEVKSGDRIAQLICERIFYPELEEVKELTDTARGEGGFGSTGTQ
notes: dUTPase of Diabrotica virgifera virgifera LeConte (protein XP_028136545; UniProt ID A0A6P7FUX9_DIAVI); the construct starts at the 25th residue of the WCR dUTPase; Arg89 changed to Lys to prevent secondary thrombin cleavage; Cloned into pET-15 by NcoI and XhoI; also called WCR dUTPase; product of WCR DUT; source: E. coli, purified (Ni-NTA, HiTrap Q; His-tag removed with human alpha-thrombin, …)
[2]
  stoichiometry N: 3
